Experiment [1] has as its target T1, human Proprotein Convertase Subtilisin-like/Kexin type 9 (UniProt Q8NBP7 31-692). Description: ELISA.
The target in experiment [2] is T2, cynomolgus monkey PCSK9 (cynomolgus monkey, UniProt A0A7N9D9N8 150-747).
T2 chain: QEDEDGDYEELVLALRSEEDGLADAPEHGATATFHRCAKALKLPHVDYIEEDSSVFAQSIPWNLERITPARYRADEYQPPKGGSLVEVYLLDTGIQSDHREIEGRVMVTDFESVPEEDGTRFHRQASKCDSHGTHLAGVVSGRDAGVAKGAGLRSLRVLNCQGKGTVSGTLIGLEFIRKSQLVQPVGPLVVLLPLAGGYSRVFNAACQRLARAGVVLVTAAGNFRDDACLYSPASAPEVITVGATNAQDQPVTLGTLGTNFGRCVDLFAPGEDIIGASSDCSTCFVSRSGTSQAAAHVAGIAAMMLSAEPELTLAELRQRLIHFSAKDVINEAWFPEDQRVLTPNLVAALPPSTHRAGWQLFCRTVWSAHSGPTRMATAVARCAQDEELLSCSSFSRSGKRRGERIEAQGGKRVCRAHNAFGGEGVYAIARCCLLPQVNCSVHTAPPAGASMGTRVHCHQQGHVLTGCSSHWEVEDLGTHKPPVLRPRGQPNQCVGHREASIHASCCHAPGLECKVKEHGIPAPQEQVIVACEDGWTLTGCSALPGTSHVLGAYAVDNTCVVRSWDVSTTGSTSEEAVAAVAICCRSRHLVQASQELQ
Description: ELISA.

Experiment [3] has as its target T1, human Proprotein Convertase …. As to the kind of experiment: ELISA. This is another data set of the same source.
Target sequence in this assay (Q8NBP7 31-692): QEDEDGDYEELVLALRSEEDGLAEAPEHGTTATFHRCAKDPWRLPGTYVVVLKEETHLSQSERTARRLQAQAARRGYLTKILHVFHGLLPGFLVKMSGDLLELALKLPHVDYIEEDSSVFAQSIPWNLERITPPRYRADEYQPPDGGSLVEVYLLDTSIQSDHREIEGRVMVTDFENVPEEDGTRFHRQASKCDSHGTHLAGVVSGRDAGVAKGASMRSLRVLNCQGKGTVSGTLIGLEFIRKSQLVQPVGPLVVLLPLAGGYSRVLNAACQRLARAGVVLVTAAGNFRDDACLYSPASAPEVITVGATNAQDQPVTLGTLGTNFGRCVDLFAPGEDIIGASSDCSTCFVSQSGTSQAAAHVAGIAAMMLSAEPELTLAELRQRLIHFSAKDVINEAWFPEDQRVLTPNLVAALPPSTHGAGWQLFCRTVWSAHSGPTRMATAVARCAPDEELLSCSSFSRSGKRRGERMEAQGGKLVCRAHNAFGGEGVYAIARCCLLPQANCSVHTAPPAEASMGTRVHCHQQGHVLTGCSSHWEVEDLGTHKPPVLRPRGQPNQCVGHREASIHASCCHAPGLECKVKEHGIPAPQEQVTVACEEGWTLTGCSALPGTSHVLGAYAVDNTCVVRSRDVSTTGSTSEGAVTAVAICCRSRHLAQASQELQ
Experiment [4] shares this target. Description: ELISA. The source holds these as a separate data set. Background: ELISA stands for enzyme-linked immunosorbent assay.
Experiment [5] has the same target. As to the kind of experiment: PCSK9-LDLR blocking ELISA.
The target is the same in experiment [6]. Description: ELISA. The source holds these as a separate data set.
Experiment [7] has as its target T2, cynomolgus monkey PCSK9. Description: ELISA.

Read-outs that look alike come from different tables or passages of the source.

B1: Ab13 (antibody, V domains shown)
VH: QSVEESGGRLVTPGTPLTLTCTVSGIDLSTYGVGWVRQAPGKGLEYIGIISSSGSTYYASWAKGRFTISKTSSTTVDLKMTSLTTEDTATYFCARDWSSTTGYYGYFNMWGPGTLVTVSS
VL: AFELTQTPSPVSAAVGGTVTIKCQASQSISTALAWYQQKPGQPPKLLIYGASNLESGVPSRFSGSGSGTQFTLTISDLECADAAIYYCQSSYGSSTLAFGGGTEVVVKR
The term EC50 denotes the concentration giving half of the maximal effect. For the molecule B1, in experiment [1], it took 0.124 nM to reach a half-maximal effect (EC50).

B2: Ab5 (antibody, V domains shown)
VH: QSVEESGGRLVTPGTPLTLTCTVSGFSLSSYAMSWVRQAPGKGLEWIGIISNSGTTYYASWAKGRFTISKTSTTVDLKITSPTTEDTATYFCARGIYWYWRVFNLWGPGTLVTVSS
VL: AVLTQTPSPVSAAVGGTVTINCQASQSVYNNLLSWYQQKPGQPPKLLIYDASNLASGVPDRFSGSGSGTQFTLTISGVQCDDAATYYCLGGYDDDADNAFGGGTEVVVKR
Consider B2, for which the EC50 in the experiment with cynomolgus monkey PCSK9 [2] stood at 0.169 nM; in experiment [3], 0.116 nM.

B3: Ab24 (antibody, V domains shown)
VH: QSLEESGGDLVKPGASLTLTCKASGFSFSSGYYMCWVRQAPGKGLEWIACIYAGSGGSTFFANWAKGRFTISKTSSTTVTLQMTSLTAADTATYFCARDGGYAGYGYAFFNLWGPGTLVTVSS
VL: DVVMTQTPASVSEPVGGTVTIKCQASERIYSGLAWYQQKPGQPPKLLIYGASTLASGVPSRFKGSGSGTDFTLTISDLECDDAAIYYCQATYYGSSYPNVFGGGTEVVVKR
The molecule B3 displayed an EC50 in experiment [4] of 0.178 nM.

B4: Ab23 (antibody, V domains shown)
VH: QSLEESGGDLVKPGASLTLTCKASGFSFSSGYYMCWVRQAPGKGLEWIACIYAGSGGSTFFANWAKGRFTISKTSSTTVTLQMTSLTAADTATYFCARDGGYAGYGYAFFNLWGPGTLVTVSS
VL: DVVMTQTPASVSEPVGGTVTIKCQASERIYSGLAWYQQKPGQPPKLLIYGASTLASGVPSRFKGSGSGTDFTLTISDLECDDAAIYYCQCTYYGSSYPNVFGGGTEVVVKR
In general, IC50 refers to the midpoint of a concentration-inhibition curve. On to B4, for which the IC50 in experiment [5] amounted to 0.81 nM.

B5: Ab6 (antibody, V domains shown)
VH: QEQLEESGGDLVKPEGSLTLTCTASGFSFSSNYWICWVRQAPGKGLEWIGCIRDGGGTYYASWAKGRLTISMTSSTTVTLQLNSLTAADTATYFCASDINDGWLGQFNLWGPGTLVTVSS
VL: DIVMTQTPASVEVAVGGTVTIKCQASQSISAYLAWYQQKPGQPPKLLIYRAYTLASGVPSRFKGSGSGTQFTLTISDLECADAATYYCQSYYSVTTNTYGNTFGGGTEVVVKR
On to B5, for which the EC50 in the experiment with cynomolgus monkey PCSK9 [2] worked out at 0.112 nM; in experiment [3], 0.117 nM.

B6: Ab10 (antibody, V domains shown)
VH: QEQLEESGGDLVKPEGSLTLTCTASGFSFSSSYWICWVRQAPGKGLEWIACIRAGGGNYYANWAKGRFTISRTSSTTVTLQMTSLTAADTATYFCASDINDGWLGQFNLWGPGTLVTVSS
VL: NIVMTQTPASVEAAVGGTVTIKCQASQSISNYLAWYQQKPGQPPKLLIYRTSTLASGVPSRFKGSGSGTQFTLTISDLECADAATYYCQSYYSVTTVAYGNTFGGGTEVVVKR
Regarding B6, in experiment [1], the EC50 turned out to be 0.126 nM.

B7: Ab7 (antibody, V domains shown)
VH: EVQLVESGGGLVQPGGSLRLSCAASGFTVSSNYWICWVRQAPGKGLEWIGCIRDGGGTYYASSAKGRFTISRDNSKNTLYLQMNSLRAEDTAVYYCASDINDGWLGQFNLWGQGTLVTVSS
VL: DIVMTQSPSSLSASVGDRVTIKCQASQSISAYLAWYQQKPGKVPKLLIYRAYTLASGVPSRFSGSGSGTDFTLTISSLQPEDVATYYCQSYYSVTTNTYGNTFGGGTKVEIKR
In the case of B7, the EC50 with cynomolgus monkey PCSK9 [2] worked out at 0.103 nM; in experiment [1], 0.104 nM.

B8: Ab22 (antibody, V domains shown)
VH: EVQLVESGGGLVQPGGSLRLSCAASGFSLSSYAMNWVRQAPGKGLEWIGAIRSSGATFFASSVNGRFTISRDNSKNTVYLQMNSLRAEDTAVYYCARDTNDGWYINRLDLWGQGTLVTVSS
VL: AVLTQSPSTLSASVGDRVTITCQSSKSVYSNYLSWFQQKPGKAPKFLIYKASTLASGVPSRFSGSGSGTEFTLTISSLQPDDFATYYCAGGDTNIADNAFGGGTKVEIKR
In experiment [6], B8 had an EC50 of 0.0492 nM.

B9: Ab8 (antibody, V domains shown)
VH: QEQLVESGGGLVQPEGSLTLTCTASGFSFTSDYYMCWVRQAPGKGLEWIGCISTGDGSTYYASWAKGRFTISKPSSTTVTLQMTRLTAADTATYFCARDRYYSYAYGAYVYASDLWGPGTLVTVSS
VL: DIVMTQTPASVSEPVGGTVTINCQASESIRNYLSWYQQKPGQRPKLLIYGASTLASGVPSRFKGSGSGTDFTLTISDLECADAATYYCQSNYGISSRSYVNGFGGGTEVVVKR
As to B9, the figures for the EC50 (in the experiment with cynomolgus monkey PCSK9 [2]; in experiment [3]) were 0.106 nM and 0.0874 nM, respectively.

B10: Ab9 (antibody, V domains shown)
VH: QSVEESGGRLVTPGTPLTLTCTVSGIDLSSYAMGWVRQAPGKGLEYIGIIVSYGPTYYASWAKGRFTISKTSTTVDLKITSPTAEDTATYFCARDLDANSSGYYGCFNIWGQGTLVTVSS
VL: AVVLTQTPASVSAAVGGTVTIKCQASQSISTALAWYQQKPGQPPKLLIYAASPLASGVSSRFKSSGSGTEFTLTISDLECADAATYYCQSYYGSSNIAFGGGTELEILR
On to B10, for which the EC50 in experiment [3] turned out to be 0.098 nM.

B11: Ab15 (antibody, V domains shown)
VH: QEQLEESGGDLVKPEGSLTLTCTASGFSFSSSYWICWVRQAPGKGLEWIACIDAGNSGSTYYASWAKGRFTISKASSTTVTLQMTSLTAADTATYFCASDLNDGWLGQFNLWGPGTLVTVSS
VL: NIVMTQTPSPVSGAVGGTVTIKCQASQSISDYLAWYQQKPGQPPKLLIYRASTLASGVPSRFRGSGSGTEYTLTITDLECADAATYYCQSYYSVTTNTYGNTFGGGTEVVVKR
On to B11, for which the EC50 in the experiment with cynomolgus monkey PCSK9 [7] was 0.161 nM.

The values above are taken from patent publication US20130302399A1 (published 2013).
